The record followed here is patent US20200057047A1 (NATIONAL HEALTH RESEARCH INSTITUTES, published 2020).

Assay [1] addresses T1, AhR, endogenous, human peripheral blood T cells (SLE and RA patients) (human, UniProt P35869 11-848, limits assumed).
T1 sequence (looked up): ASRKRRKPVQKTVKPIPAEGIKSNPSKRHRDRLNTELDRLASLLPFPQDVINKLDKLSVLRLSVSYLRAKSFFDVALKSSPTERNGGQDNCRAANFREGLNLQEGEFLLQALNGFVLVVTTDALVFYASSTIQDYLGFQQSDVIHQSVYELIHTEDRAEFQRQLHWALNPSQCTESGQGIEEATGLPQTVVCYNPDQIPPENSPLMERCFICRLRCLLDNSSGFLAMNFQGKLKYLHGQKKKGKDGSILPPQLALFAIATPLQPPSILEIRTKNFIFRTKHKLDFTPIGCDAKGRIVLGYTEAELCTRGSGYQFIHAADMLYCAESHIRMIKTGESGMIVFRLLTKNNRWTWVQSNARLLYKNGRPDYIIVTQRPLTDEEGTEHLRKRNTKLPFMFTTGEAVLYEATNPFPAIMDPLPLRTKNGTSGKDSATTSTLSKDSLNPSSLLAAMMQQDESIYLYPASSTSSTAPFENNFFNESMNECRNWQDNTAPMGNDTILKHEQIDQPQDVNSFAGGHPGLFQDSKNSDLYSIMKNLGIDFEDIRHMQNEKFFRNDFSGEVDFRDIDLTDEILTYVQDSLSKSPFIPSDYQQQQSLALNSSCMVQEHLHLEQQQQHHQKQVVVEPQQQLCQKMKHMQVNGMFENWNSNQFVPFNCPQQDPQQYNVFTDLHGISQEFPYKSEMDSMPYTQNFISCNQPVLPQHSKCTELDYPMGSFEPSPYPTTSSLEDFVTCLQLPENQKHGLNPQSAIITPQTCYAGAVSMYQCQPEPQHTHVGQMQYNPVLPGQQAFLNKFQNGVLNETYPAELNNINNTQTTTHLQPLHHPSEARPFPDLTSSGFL
Kind of assay: in situ PLA, human peripheral blood T cells (FIG. 8C).

In assay [2] the target is T2, GLK (MAP4K3) (transfected; construct of the ALPHA assay with AhR not stated) (UniProt Q8IVH8 1-894, limits assumed).
T2 construct: Expression plasmid 'reported previously'
T2 sequence (looked up): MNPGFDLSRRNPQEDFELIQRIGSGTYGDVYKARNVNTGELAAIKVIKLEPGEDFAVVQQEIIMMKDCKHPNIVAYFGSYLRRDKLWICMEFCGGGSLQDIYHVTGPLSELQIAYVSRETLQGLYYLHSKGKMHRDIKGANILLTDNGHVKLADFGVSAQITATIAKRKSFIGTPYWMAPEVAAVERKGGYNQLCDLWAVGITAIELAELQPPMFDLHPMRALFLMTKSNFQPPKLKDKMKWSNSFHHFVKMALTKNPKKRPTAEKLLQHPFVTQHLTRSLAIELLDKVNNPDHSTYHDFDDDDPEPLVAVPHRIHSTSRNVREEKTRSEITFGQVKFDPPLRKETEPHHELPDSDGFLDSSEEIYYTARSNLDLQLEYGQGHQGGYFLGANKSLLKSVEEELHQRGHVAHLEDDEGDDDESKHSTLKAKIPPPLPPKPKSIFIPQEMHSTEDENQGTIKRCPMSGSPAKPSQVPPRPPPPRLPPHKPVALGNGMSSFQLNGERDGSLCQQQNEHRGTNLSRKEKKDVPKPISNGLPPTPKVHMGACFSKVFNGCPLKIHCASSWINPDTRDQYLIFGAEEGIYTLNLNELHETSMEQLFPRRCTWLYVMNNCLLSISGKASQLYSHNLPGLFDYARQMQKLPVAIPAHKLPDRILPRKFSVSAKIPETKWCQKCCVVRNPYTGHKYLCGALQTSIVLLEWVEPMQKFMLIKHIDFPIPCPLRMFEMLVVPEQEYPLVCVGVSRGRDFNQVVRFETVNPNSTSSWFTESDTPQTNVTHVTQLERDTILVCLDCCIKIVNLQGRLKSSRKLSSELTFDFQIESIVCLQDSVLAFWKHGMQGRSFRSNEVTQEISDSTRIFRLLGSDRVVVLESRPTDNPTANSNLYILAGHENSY
As to the kind of experiment: ALPHA protein-protein interaction assay.

The target of assay [3] is IQGAP1, endogenous, human NSCLC tissues (human, UniProt P46940 2-1657). Kind of assay: in situ PLA with probes for GLK and IQGAP1, human NSCLC tissue sections (FIGS. 21A-B). An excerpt: These tissues were subjected to in situ proximity ligation assay (PLA) with a combination of paired PLA probes corresponding to GLK and IQGAP1. […] The few PLA signals in the normal adjacent tissues of NSCLC patients may be metastatic cancer cells migrating from original lesion. […] Next, we studied whether the GLK−IQGAP1 complex could act as a potential prognostic biomarker for NSCLCs. NSCLC (squamous cell carcinoma and adenocarcinoma) patients, whose survival data were available, were divided into four PLA-signal subgroups after cluster analyses. The two subgroups with highest PLA signals contained only one and two patients, respectively, thus, these two subgroups were excluded from further analysis. The remaining two subgroups (n=63) were subjected to Kaplan-Meier survival analysis using the survival data (available from the provider). […] The higher P value (P=0.069) may be due to the exclusion of three data with highest PLA signals. Nevertheless, NSCLC patients with more GLK−IQGAP1 complexes have a lower survival rate than that of the patients with less GLK−IQGAP1 complexes. Because 40% to 60% of NSCLC patients the of cancer recurrence after cancer resection, we studied whether the GLK−IQGAP1 complex is associated with NSCLC metastasis. […]

For assay [4], the target named is IQGAP1, endogenous, lung tissues of mice in the LLC/luc metastatic lung cancer model (mouse, UniProt Q9JKF1 2-1657). As to the kind of experiment: in situ PLA, lung tissues of the LLC/luc mouse model (FIG. 16H, upper panel).
Chain of IQGAP1, endogenous, lung tissues of mice in the LLC/luc metastatic lung cancer model (Q9JKF1 2-1657 limits assumed): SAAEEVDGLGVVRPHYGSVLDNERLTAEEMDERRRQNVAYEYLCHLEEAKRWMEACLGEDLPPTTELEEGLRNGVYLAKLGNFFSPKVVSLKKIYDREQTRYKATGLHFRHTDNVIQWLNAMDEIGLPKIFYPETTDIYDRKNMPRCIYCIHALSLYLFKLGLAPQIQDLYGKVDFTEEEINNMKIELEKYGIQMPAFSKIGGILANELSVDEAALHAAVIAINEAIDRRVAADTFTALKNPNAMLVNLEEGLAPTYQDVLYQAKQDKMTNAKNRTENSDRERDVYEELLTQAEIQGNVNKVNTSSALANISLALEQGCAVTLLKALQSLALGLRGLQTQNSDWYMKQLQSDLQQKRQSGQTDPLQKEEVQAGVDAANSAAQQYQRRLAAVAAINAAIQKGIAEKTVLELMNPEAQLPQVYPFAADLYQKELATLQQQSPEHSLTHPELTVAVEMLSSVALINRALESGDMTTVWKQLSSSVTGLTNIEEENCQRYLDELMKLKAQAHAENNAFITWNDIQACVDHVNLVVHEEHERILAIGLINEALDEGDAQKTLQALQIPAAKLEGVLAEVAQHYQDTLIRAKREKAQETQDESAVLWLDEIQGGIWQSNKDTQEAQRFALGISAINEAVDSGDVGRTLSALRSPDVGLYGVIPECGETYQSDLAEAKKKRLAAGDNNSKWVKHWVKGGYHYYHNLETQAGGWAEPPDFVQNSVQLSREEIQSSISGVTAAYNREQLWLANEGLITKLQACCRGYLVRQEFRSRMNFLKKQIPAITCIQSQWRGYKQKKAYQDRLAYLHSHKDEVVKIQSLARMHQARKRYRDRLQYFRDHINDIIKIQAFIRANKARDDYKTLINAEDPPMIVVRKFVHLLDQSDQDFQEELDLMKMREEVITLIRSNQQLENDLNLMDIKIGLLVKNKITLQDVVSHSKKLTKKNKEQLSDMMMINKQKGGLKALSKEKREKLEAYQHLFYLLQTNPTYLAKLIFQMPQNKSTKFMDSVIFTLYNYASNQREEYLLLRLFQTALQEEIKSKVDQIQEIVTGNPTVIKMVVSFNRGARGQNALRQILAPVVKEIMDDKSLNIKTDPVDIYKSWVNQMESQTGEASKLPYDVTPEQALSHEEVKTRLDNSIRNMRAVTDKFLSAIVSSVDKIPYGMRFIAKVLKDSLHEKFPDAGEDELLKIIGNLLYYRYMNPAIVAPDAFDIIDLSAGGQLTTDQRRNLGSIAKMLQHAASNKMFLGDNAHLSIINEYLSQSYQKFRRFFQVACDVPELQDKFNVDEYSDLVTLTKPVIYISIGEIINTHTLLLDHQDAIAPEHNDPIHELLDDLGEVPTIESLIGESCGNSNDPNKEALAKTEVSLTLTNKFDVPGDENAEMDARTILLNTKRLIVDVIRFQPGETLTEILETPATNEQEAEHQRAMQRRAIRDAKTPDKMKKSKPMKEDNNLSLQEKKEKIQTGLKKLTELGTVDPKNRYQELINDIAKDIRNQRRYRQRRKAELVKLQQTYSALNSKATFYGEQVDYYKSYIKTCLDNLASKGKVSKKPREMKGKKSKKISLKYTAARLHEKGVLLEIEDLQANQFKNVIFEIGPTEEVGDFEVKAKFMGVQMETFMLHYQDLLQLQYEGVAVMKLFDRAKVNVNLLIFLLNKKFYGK

Chain of IQGAP1, endogenous, human NSCLC tissues (P46940 2-1657 limits assumed): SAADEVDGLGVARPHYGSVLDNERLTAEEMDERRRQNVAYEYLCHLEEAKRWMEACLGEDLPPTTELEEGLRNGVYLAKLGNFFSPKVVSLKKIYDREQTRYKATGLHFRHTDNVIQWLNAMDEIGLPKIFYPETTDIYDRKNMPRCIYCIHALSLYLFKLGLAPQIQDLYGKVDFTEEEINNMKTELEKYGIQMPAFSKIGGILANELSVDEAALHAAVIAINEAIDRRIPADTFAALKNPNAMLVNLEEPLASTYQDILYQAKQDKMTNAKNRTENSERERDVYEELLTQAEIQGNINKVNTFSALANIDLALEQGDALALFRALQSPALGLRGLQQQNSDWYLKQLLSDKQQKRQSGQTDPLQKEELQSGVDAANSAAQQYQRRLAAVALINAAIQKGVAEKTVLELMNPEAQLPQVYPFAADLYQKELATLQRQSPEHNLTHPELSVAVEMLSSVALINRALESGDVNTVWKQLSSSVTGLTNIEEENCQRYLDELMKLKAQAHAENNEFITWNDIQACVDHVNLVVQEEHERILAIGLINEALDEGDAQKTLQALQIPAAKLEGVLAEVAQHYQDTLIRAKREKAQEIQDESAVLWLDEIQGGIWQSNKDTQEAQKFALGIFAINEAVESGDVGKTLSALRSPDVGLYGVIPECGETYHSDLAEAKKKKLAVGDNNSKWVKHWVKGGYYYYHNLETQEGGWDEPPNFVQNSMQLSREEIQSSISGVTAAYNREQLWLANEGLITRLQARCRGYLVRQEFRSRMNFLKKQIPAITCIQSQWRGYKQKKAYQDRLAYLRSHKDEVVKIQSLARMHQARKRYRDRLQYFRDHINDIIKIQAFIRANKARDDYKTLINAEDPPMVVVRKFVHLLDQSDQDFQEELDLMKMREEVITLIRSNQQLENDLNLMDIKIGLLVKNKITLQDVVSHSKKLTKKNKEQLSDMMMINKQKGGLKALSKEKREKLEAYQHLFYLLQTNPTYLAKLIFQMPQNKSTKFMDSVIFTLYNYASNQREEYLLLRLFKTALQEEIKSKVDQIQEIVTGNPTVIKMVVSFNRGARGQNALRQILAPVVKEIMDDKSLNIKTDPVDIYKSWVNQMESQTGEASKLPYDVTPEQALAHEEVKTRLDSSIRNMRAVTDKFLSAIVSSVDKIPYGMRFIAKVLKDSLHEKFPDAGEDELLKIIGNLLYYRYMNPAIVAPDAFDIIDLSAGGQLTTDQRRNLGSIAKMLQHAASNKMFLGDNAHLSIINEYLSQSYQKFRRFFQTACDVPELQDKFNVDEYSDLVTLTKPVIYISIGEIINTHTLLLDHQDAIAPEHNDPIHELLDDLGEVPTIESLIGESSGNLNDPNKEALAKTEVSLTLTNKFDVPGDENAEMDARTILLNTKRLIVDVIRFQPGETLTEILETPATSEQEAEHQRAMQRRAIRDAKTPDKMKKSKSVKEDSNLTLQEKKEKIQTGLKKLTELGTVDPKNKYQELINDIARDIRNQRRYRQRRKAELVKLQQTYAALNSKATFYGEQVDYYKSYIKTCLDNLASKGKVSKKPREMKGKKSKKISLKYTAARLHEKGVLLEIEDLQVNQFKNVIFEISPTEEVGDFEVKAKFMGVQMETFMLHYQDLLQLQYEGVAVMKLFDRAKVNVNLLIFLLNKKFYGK

B1: RORγt, endogenous, human peripheral blood T cells (SLE and RA patients) (receptor, UniProt P51449-2 1-497, looked up)
chain: MRTQIEVIPCKICGDKSSGIHYGVITCEGCKGFFRRSQRCNAAYSCTRQQNCPIDRTSRNRCQHCRLQKCLALGMSRDAVKFGRMSKKQRDSLHAEVQKQLQQRQQQQQEPVVKTPPAGAQGADTLTYTLGLPDGQLPLGSSPDLPEASACPPGLLKASGSGPSYSNNLAKAGLNGASCHLEYSPERGKAEGRESFYSTGSQLTPDRCGLRFEEHRHPGLGELGQGPDSYGSPSFRSTPEAPYASLTEIEHLVQSVCKSYRETCQLRLEDLLRQRSNIFSREEVTGYQRKSMWEMWERCAHHLTEAIQYVVEFAKRLSGFMELCQNDQIVLLKAGAMEVVLVRMCRAYNADNRTVFFEGKYGGMELFRALGCSELISSIFDFSHSLSALHFSEDEIALYTALVLINAHRPGLQEKRKVEQLQYNLELAFHHHLCKTHRQSILAKLPPKGKLRSLCSQHVERLQIFQHLHPIVVQAAFPPLYKELFSTETESPVGLSK
For the molecule B1, the binding result in assay [1] is listed as “binds”.

B2: AhR (transfected; construct of the ALPHA and FRET assays with PKCθ or GLK not stated) (receptor)
chain: MNSSSANITYASRKRRKPVQKTVKPIPAEGIKSNPSKRHRDRLNTELDRLASLLPFPQDVINKLDKLSVLRLSVSYLRAKSFFDVALKSSPTERNGGQDNCRAANFREGLNLQEGEFLLQALNGFVLVVTTDALVFYASSTIQDYLGFQQSDVIHQSVYELIHTEDRAEFQRQLHWALNPSQCTESGQGIEEATGLPQTVVCYNPDQIPPENSPLMERCFICRLRCLLDNSSGFLAMNFQGKLKYLHGQKKKGKDGSILPPQLALFAIATPLQPPSILEIRTKNFIFRTKHKLDFTPIGCDAKGRIVLGYTEAELCTRGSGYQFIHAADMLYCAESHIRMIKTGESGMIVFRLLTKNNRWTWVQSNARLLYKNGRPDYIIVTQRPLTDEEGTEHLRKRNTKLPFMFTTGEAVLYEATNPFPAIMDPLPLRTKNGTSGKDSATTSTLSKDSLNPSSLLAAMMQQDESIYLYPASSTSSTAPFENNFFNESMNECRNWQDNTAPMGNDTILKHEQIDQPQDVNSFAGGHPGLFQDSKNSDLYSIMKNLGIDFEDIRHMQNEKFFRNDFSGEVDFRDIDLTDEILTYVQDSLSKSPFIPSDYQQQQSLALNSSCMVQEHLHLEQQQQHHQKQVVVEPQQQLCQKMKHMQVNGMFENWNSNQFVPFNCPQQDPQQYNVFTDLHGISQEFPYKSEMDSMPYTQNFISCNQPVLPQHSKCTELDYPMGSFEPSPYPTTSSLEDFVTCLQLPENQKHGLNPQSAIITPQTCYAGAVSMYQCQPEPQHTHVGQMQYNPVLPGQQAFLNKFQNGVLNETYPAELNNINNTQTTTHLQPLHHPSEARPFPDLTSSGFL
For B2, the binding result in assay [2] was “no binding”.

B3: GLK, endogenous, human NSCLC tissues (enzyme, UniProt Q8IVH8 1-894, looked up)
chain: T2 sequence (looked up)
In the case of B3, the binding result in assay [3] is recorded as “binds”.

B4: GLK, endogenous, lung tissues of mice in the LLC/luc metastatic lung cancer model (enzyme)
chain: not shown
As for B4, the binding result in assay [4] is “binds”.
